The record followed here is patent US20260209386A1 (MYTHIC THERAPEUTICS, published 2026).

Assay [1] addresses T1, Human PTK7 Protein, His Tag, Acro Biosystems (human, UniProt Q13308 31-704).
T1 construct: Bought protein; also called CCK4; not shown: His tag
T1 sequence: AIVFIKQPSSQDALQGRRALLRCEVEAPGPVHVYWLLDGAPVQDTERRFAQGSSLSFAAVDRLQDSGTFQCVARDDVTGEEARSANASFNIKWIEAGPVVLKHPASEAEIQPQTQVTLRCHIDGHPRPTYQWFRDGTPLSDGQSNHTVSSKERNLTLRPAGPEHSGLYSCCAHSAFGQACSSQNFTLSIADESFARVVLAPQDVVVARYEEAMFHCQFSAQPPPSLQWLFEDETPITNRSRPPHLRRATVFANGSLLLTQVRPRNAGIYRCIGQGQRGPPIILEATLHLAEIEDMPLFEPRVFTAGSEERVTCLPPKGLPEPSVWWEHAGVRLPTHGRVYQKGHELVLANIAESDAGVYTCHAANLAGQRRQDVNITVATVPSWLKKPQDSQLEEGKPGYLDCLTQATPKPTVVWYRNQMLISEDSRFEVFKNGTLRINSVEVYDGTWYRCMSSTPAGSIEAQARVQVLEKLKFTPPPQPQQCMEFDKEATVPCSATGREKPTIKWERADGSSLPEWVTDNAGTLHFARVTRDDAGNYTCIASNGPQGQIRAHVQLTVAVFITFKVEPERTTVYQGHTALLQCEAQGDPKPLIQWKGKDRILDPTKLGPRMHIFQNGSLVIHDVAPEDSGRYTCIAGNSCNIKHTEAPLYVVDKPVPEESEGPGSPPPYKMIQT
Briefly: BLI (Octet), antibody on anti-human Fc sensor, 50 nM PTK7, dissociation at pH 7.4 or 5.4; 2 = substantially similar binding relative to parent. (In BLI a coated tip is dipped into the sample, and binding shifts an interference pattern.)

In assay [2] the target is T2, Human PTK7 Protein, His Tag, Acro Biosystems (human, UniProt Q13308 31-704).
T2 construct: Bought recombinant protein; also called CCK4; not shown: His tag
T2 sequence: T1 sequence
In words: BLI, anti-human Fc capture, 50 nM PTK7; 2 = substantially similar binding relative to parent.

Where a chain is given by its changes, count along the chain named.

B1: MYT11181 (antibody, V domains shown)
VH: EVQLVESGGGLVQPGGSLRLSCTASGHDLSSYVMGWVRQAPGKGLEWVGYIYGGGGTYYATWARGRFTISRDTSKNTVYLQMNSLRAEDTAVYFCARAAADFYFNLWGQGTLVTVSS
VL: EIVMTQSPSTLSASVGDRVIITCQASQSISSYLAWYQQKPGKAPKLLIYDISDLASGVPSRFSGSGSGAEFTLTISSLQPDDFATYYCQSYYWISNSGAAFGQGTKLTVL
notes: HC variant of MYT9460, sub at HCV pos 27 (H1 02)
As to B1, the binding result in assay [1] was “binds”.

B2: MYT11220 (antibody, V domains shown)
VH: B1 VH with H27I
VL: B1 VL with Q24H
notes: LC variant of MYT9460, sub at LCV pos 24 (L1 01)
As to B2, in assay [1], the binding result was “binds”.

B3: MYT11214 (antibody, V domains shown)
VH: B1 VH with H27I, F104H
VL: B1 VL
notes: HC variant of MYT9460, sub at HCV pos 104 (H3 09)
As to B3, the binding result in assay [1] is listed as “binds”.

B4: MYT11188 (antibody, V domains shown)
VH: B1 VH with H27I, M34H
VL: B1 VL
notes: HC variant of MYT9460, sub at HCV pos 34 (H1 09)
B4: the binding result in assay [1] is “binds”.

B5: MYT11228 (antibody, V domains shown)
VH: B1 VH with H27I
VL: B1 VL with Y32H
notes: LC variant of MYT9460, sub at LCV pos 32 (L1 09)
Regarding B5, the binding result in assay [1] is recorded as “binds”.

B6: MYT11227 (antibody, V domains shown)
VH: B1 VH with H27I
VL: B1 VL with S31H
notes: LC variant of MYT9460, sub at LCV pos 31 (L1 08)
In the case of B6, the binding result in assay [1] is on record as “binds”.

B7: MYT11217 (antibody, V domains shown)
VH: B1 VH with H27I, F94Y
VL: B1 VL
In the case of B7, the binding result in assay [1] is given as “binds”.

B8: MYT11183 (antibody, V domains shown)
VH: B1 VH with H27I, L29H
VL: B1 VL
notes: HC variant of MYT9460, sub at HCV pos 29 (H1 04)
Turning to B8, the binding result in assay [1] was “binds”.

B9: MYT11203 (antibody, V domains shown)
VH: B1 VH with H27I, A63H
VL: B1 VL
notes: HC variant of MYT9460, sub at HCV pos 63 (H2 14)
Turning to B9, the binding result in assay [1] is on record as “binds”.

B10: MYT11208 (antibody, V domains shown)
VH: B1 VH with H27I, A98H
VL: B1 VL
notes: HC variant of MYT9460, sub at HCV pos 98 (H3 03)
Consider B10, for which the binding result in assay [1] is “binds”.

B11: MYT11219 (antibody, V domains shown)
VH: B1 VH with H27I, D101A
VL: B1 VL
notes: HC variant of MYT9460, printed as H3 05 with HCV pos 101, new residue not marked
As to B11, the binding result in assay [1] is “binds”.

B12: MYT11185 (antibody, V domains shown)
VH: B1 VH with H27I, S31H
VL: B1 VL
notes: HC variant of MYT9460, sub at HCV pos 31 (H1 06)
For the molecule B12, the binding result in assay [1] is given as “binds”.

B13: MYT11202 (antibody, V domains shown)
VH: B1 VH with H27I, W62H
VL: B1 VL
notes: HC variant of MYT9460, sub at HCV pos 62 (H2 13)
With B13, the binding result in assay [1] was “binds”.

B14: MYT11200 (antibody, V domains shown)
VH: B1 VH with H27I, A60H
VL: B1 VL
notes: HC variant of MYT9460, sub at HCV pos 60 (H2 11)
Consider B14, for which the binding result in assay [1] is reported as “binds”.

B15: MYT11215 (antibody, V domains shown)
VH: B1 VH with H27I, N105H
VL: B1 VL
With B15, the binding result in assay [1] is “binds”.

B16: MYT11216 (antibody, V domains shown)
VH: B1 VH with H27I, L106H
VL: B1 VL
As to B16, in assay [1], the binding result is listed as “binds”.

B17: MYT11199 (antibody, V domains shown)
VH: B1 VH with H27I, Y59H
VL: B1 VL
notes: HC variant of MYT9460, sub at HCV pos 59 (H2 10)
Take B17: the binding result in assay [1] is on record as “binds”.

B18: MYT11209 (antibody, V domains shown)
VH: B1 VH with H27I, A99H
VL: B1 VL
notes: HC variant of MYT9460, sub at HCV pos 99 (H3 04)
Turning to B18, in assay [1], the binding result is recorded as “binds”.

B19: MYT11226 (antibody, V domains shown)
VH: B1 VH with H27I
VL: B1 VL with S30H
notes: LC variant of MYT9460, sub at LCV pos 30 (L1 07)
B19: the binding result in assay [1] is “binds”.

B20: MYT11218 (antibody, V domains shown)
VH: B1 VH with H27I, D28A
VL: B1 VL
notes: HC variant of MYT9460, sub at HCV pos 28 (H1 03), second variant at this position, new residue not marked
For the molecule B20, the binding result in assay [1] was “binds”.

B21: MYT11206 (antibody, V domains shown)
VH: B1 VH with H27I, A96H
VL: B1 VL
notes: HC variant of MYT9460, sub at HCV pos 96 (H3 01)
With B21, in assay [1], the binding result is recorded as “binds”.

B22: MYT11223 (antibody, V domains shown)
VH: B1 VH with H27I
VL: B1 VL with Q27H
notes: LC variant of MYT9460, sub at LCV pos 27 (L1 04)
For the molecule B22, the binding result in assay [1] was “binds”.

B23: MYT11198 (antibody, V domains shown)
VH: B1 VH with H27I, Y58H
VL: B1 VL
notes: HC variant of MYT9460, sub at HCV pos 58 (H2 09)
Turning to B23, in assay [1], the binding result is “binds”.

B24: MYT11201 (antibody, V domains shown)
VH: B1 VH with H27I, T61H
VL: B1 VL
notes: HC variant of MYT9460, sub at HCV pos 61 (H2 12)
With B24, the binding result in assay [1] is on record as “binds”.

B25: MYT11187 (antibody, V domains shown)
VH: B1 VH with H27I, V33H
VL: B1 VL
notes: HC variant of MYT9460, sub at HCV pos 33 (H1 08)
Regarding B25, in assay [1], the binding result is “binds”.

B26: MYT11207 (antibody, V domains shown)
VH: B1 VH with H27I, R97H
VL: B1 VL
notes: HC variant of MYT9460, sub at HCV pos 97 (H3 02)
Consider B26, for which, in assay [1], the binding result is “binds”.

B27: MYT11205 (antibody, V domains shown)
VH: B1 VH with H27I, G65H
VL: B1 VL
notes: HC variant of MYT9460, sub at HCV pos 65 (H2 16)
On to B27, for which the binding result in assay [1] is “binds”.

B28: MYT11186 (antibody, V domains shown)
VH: B1 VH with H27I, Y32H
VL: B1 VL
notes: HC variant of MYT9460, sub at HCV pos 32 (H1 07)
Take B28: the binding result in assay [1] is listed as “binds”.

B29: MYT11317 (antibody, V domains shown)
VH: EVQLVESGGGLVQPGGSLRLSCTASGIDLSRYSMGWVRQAPGKGLEWVGIISYGGSTYYASWAKGRFTISRDTSKNTVYLQMNSLRAEDTAVYFCARVGYPGYSGYGYAFDAFDPWGQGTLVTVSS
VL: EIVMTQSPSTLSASVGDRVIITCQSSKSVYNDNWLSWYQQKPGKAPKLLIYHASTLASGVPSRFSGSGSGAEFTLTISSLQPDDFATYYCAGGYSSSSDNGFGQGTKLTVL
notes: MYT9792 variant, His at VL 52 (L2 01)
Consider B29, for which, in assay [2], the binding result was “binds”.

B30: MYT11329 (antibody, V domains shown)
VH: B29 VH
VL: B29 VL with H52G, S96H
notes: MYT9792 variant, His at VL 96 (L3 06)
B30: in assay [2], the binding result is “binds”.

B31: MYT11323 (antibody, V domains shown)
VH: B29 VH
VL: B29 VL with H52G, S58H
notes: MYT9792 variant, His at VL 58 (L2 07)
In the case of B31, the binding result in assay [2] is recorded as “binds”.

B32: MYT11318 (antibody, V domains shown)
VH: B29 VH
VL: B29 VL with H52G, A53H
notes: MYT9792 variant, His at VL 53 (L2 02)
As for B32, in assay [2], the binding result is listed as “binds”.

B33: MYT11320 (antibody, V domains shown)
VH: B29 VH
VL: B29 VL with H52G, T55H
notes: MYT9792 variant, His at VL 55 (L2 04)
On to B33, for which the binding result in assay [2] is listed as “binds”.

B34: MYT11336 (antibody, V domains shown)
VH: B29 VH
VL: B29 VL with D32A, H52G
notes: MYT9792 variant, Ala at VL 32 (L1 09)
With B34, the binding result in assay [2] is recorded as “binds”.

B35: MYT11319 (antibody, V domains shown)
VH: B29 VH
VL: B29 VL with H52G, S54H
notes: MYT9792 variant, His at VL 54 (L2 03)
In the case of B35, in assay [2], the binding result is on record as “binds”.

B36: MYT11334 (antibody, V domains shown)
VH: B29 VH
VL: B29 VL with H52G, G101H
notes: MYT9792 variant, His at VL 101 (L3 11)
With B36, the binding result in assay [2] is “binds”.

B37: MYT11338 (antibody, V domains shown)
VH: B29 VH
VL: B29 VL with H52G, N100A
notes: MYT9792 variant, Ala at VL 100 (L3 10)
Turning to B37, the binding result in assay [2] was “binds”.
